In patent US20220227866A1 (VELOSBIO, published 2022):
“And” between values parts separate entries of the source, which are not always exact repeats. Equal entries are not always repeated.

B1: Bispecific construct 1 (bispecific antibody, human IgG1, kappa)
heavy: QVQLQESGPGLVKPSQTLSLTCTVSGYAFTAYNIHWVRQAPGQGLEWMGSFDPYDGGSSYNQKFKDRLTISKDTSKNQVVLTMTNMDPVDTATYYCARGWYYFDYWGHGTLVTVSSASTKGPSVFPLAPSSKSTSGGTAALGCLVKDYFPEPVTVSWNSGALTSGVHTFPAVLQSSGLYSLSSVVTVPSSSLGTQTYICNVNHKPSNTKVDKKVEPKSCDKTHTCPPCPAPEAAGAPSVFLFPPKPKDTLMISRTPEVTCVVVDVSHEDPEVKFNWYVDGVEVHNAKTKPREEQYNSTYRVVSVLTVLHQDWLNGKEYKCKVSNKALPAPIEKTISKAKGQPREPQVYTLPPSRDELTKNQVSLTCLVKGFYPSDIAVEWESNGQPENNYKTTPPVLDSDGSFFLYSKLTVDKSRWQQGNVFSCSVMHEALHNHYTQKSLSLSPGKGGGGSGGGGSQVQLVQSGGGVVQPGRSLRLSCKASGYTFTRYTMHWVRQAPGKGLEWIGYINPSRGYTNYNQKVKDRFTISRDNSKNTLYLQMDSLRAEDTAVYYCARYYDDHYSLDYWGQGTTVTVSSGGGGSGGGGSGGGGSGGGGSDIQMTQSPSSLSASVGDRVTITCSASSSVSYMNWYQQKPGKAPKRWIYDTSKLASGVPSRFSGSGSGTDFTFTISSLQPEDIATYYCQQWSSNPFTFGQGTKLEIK
light: DIVMTQTPLSLPVTPGEPASISCRASKSISKYLAWYQQKPGQAPRLLIYSGSTLQSGIPPRFSGSGYGTDFTLTINNIESEDAAYYFCQQHDESPYTFGEGTKVEIKRTVAAPSVFIFPPSDEQLKSGTASVVCLLNNFYPREAKVQWKVDNALQSGNSQESVTEQDSKDSTYSLSSTLTLSKADYEKHKVYACEVTHQGLSSPVTKSFNRGEC
notes: ROR1 arm Ab1; CD3 valency 2, ROR1 valency 2
B2: Bispecific construct 9 (bispecific antibody, human IgG1, kappa)
heavy: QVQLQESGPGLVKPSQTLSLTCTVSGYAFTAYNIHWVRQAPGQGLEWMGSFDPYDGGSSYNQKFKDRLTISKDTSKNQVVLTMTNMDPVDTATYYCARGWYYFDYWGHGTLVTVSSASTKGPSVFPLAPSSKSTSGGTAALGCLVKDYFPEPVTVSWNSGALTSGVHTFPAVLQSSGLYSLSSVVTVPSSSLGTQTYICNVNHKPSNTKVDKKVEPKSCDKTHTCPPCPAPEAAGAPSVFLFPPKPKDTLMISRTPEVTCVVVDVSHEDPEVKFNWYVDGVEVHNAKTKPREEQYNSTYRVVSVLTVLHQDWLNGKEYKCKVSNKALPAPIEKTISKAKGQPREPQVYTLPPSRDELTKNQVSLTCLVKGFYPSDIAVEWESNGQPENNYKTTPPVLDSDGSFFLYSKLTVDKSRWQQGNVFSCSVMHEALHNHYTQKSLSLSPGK
light: DIVMTQTPLSLPVTPGEPASISCRASKSISKYLAWYQQKPGQAPRLLIYSGSTLQSGIPPRFSGSGYGTDFTLTINNIESEDAAYYFCQQHDESPYTFGEGTKVEIKRTVAAPSVFIFPPSDEQLKSGTASVVCLLNNFYPREAKVQWKVDNALQSGNSQESVTEQDSKDSTYSLSSTLTLSKADYEKHKVYACEVTHQGLSSPVTKSFNRGECGGGGSGGGGSEVQLVESGGGLVQPGGSLRLSCAASGFTFNTYAMNWVRQAPGKGLEWVARIRSKYNNYATYYADSVKGRFTISRDDSKNTLYLQMNSLRAEDTAVYYCVRHGNFGNSYVSYFAYWGQGTTVTVSSGGGGSGGGGSGGGGSGGGGSEIVVTQSPATLSVSPGERATLSCRSSTGAVTAANYANWVQEKPGQAFRGLIGGANKRAPGVPARFSGSLSGDEATLTISSLQSEDFAVYYCALFYSNLWVFGQGTKLEIK
notes: anti-CD3 scFv Ab10 (SP34-based); ROR1 arm Ab1; valency 2/2
B3: parental Ab1 Fab (WT) (Fab, V domains shown)
VH: QVQLQESGPGLVKPSQTLSLTCTVSGYAFTAYNIHWVRQAPGQGLEWMGSFDPYDGGSSYNQKFKDRLTISKDTSKNQVVLTMTNMDPVDTATYYCARGWYYFDYWGHGTLVTVSS
VL: DIVMTQTPLSLPVTPGEPASISCRASKSISKYLAWYQQKPGQAPRLLIYSGSTLQSGIPPRFSGSGYGTDFTLTINNIESEDAAYYFCQQHDESPYTFGEGTKVEIKR
notes: Tested as Fab; also called parental Fab; parental antibody
B4: parental anti-ROR1 IgG (Ab1) (antibody, V domains shown)
VH: B3 VH
VL: B3 VL
notes: also called Control; parental IgG
B5: Bispecific construct 7 (bispecific antibody, human IgG1, kappa)
heavy: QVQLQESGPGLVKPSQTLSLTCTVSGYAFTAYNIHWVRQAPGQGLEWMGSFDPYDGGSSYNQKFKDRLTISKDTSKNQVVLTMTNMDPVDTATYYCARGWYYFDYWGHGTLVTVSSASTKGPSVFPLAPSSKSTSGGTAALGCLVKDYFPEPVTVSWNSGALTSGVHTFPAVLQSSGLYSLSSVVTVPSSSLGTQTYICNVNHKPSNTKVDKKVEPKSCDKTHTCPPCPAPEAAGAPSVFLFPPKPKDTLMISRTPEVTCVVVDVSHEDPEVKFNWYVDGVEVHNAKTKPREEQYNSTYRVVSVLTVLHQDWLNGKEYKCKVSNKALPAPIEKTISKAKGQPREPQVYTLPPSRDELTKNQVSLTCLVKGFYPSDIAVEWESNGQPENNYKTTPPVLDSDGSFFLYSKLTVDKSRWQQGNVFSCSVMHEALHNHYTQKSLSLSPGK
light: DIVMTQTPLSLPVTPGEPASISCRASKSISKYLAWYQQKPGQAPRLLIYSGSTLQSGIPPRFSGSGYGTDFTLTINNIESEDAAYYFCQQHDESPYTFGEGTKVEIKRTVAAPSVFIFPPSDEQLKSGTASVVCLLNNFYPREAKVQWKVDNALQSGNSQESVTEQDSKDSTYSLSSTLTLSKADYEKHKVYACEVTHQGLSSPVTKSFNRGECGGGGSGGGGSQVQLVQSGGGVVQPGRSLRLSCKASGYTFTRYTMHWVRQAPGKGLEWIGYINPSRGYTNYNQKVKDRFTISRDNSKNTLYLQMDSLRAEDTAVYYCARYYDDHYSLDYWGQGTTVTVSSGGGGSGGGGSGGGGSGGGGSDIQMTQSPSSLSASVGDRVTITCSASSSVSYMNWYQQKPGKAPKRWIYDTSKLASGVPSRFSGSGSGTDFTFTISSLQPEDIATYYCQQWSSNPFTFGQGTKLEIK
notes: ROR1 arm Ab1; valency 2/2

Columns and labels:
[1] = target: T1, recombinant human ROR1 extracellular domain (human, UniProt Q01973 30-406); assay: ELISA, immobilised ROR1 ECD, construct titrated
T1 construct: Bought (Acro Biosystems cat. R01-H522Y); whole entry named; also called ROR1-ECD; immobilized ROR1
T1 sequence (Q01973 30-406 limits assumed): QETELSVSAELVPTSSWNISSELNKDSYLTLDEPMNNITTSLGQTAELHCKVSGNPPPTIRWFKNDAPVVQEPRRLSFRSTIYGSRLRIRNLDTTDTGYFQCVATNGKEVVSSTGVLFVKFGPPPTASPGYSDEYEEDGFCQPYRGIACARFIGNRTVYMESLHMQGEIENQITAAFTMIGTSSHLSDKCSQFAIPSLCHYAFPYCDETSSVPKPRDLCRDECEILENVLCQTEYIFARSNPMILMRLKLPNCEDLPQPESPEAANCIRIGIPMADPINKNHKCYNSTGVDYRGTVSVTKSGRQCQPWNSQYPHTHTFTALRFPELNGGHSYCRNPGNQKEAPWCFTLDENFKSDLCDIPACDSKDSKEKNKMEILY

[2] = target: T2, soluble biotinylated human ROR1 extracellular domain (human, UniProt Q01973 30-406, biotinylated with EZ-Link Sulfo-NHS-LC-Biotin at a 1:5 molar ratio); assay: ELISA, captured construct, biotinylated ROR1 titrated
T2 construct: Acro Biosystems cat; whole entry named; also called b-ROR1; soluble b-ROR1
T2 sequence (Q01973 30-406 limits assumed): as above

human ROR1 on cells [3] = target: T3, human ROR1 on cells (human, UniProt Q01973 30-937); assay: flow cytometry on ROR1-transfected MEC cells after 24 h incubation with the construct
T3 construct: Cell-surface ROR1; also called ROR1-transfected MEC cells; JeKo-1 cells
T3 sequence (Q01973 30-937 limits assumed): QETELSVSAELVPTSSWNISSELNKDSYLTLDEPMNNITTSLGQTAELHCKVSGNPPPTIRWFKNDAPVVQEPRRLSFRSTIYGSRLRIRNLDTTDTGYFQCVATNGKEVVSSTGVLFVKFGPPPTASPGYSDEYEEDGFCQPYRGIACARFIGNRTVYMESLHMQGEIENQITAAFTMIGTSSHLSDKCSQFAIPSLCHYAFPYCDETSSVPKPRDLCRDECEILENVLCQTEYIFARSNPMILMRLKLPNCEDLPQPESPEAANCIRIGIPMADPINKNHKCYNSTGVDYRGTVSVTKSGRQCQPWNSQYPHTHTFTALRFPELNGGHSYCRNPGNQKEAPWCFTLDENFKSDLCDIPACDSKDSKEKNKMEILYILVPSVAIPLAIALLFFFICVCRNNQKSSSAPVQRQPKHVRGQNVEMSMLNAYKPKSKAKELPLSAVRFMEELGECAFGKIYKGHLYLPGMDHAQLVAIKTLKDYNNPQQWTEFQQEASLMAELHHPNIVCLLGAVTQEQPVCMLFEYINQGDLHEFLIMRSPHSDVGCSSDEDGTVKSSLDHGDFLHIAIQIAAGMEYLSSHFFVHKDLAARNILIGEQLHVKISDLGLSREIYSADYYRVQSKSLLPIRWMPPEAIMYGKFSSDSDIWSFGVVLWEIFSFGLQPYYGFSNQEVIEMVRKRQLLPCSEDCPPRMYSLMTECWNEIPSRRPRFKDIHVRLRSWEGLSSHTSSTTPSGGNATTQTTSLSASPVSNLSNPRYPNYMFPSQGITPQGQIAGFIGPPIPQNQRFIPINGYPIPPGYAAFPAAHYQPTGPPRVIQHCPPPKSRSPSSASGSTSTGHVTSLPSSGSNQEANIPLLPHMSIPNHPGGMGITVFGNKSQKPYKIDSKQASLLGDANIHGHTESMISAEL

[4] = target: T4, human CD3 on Jurkat cells (human, UniProt P09693 23-182; P04234 22-171; P07766 23-207); assay: flow cytometry on Jurkat cells
T4 construct: GenBank NP_000064.1, NP_000723.1, NP_000724.1
T4 sequence (P09693 23-182 limits assumed, chain 1 of 3): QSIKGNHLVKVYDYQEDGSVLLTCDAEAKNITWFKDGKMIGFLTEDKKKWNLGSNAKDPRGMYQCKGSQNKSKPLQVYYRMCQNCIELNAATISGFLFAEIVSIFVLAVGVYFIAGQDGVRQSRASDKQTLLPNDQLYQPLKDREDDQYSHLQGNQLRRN
T4 sequence (P04234 22-171 limits assumed, chain 2 of 3): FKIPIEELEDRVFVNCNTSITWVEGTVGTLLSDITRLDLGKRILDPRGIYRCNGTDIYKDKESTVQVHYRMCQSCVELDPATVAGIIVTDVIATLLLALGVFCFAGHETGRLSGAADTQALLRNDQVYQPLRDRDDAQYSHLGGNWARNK
T4 sequence (P07766 23-207 limits assumed, chain 3 of 3): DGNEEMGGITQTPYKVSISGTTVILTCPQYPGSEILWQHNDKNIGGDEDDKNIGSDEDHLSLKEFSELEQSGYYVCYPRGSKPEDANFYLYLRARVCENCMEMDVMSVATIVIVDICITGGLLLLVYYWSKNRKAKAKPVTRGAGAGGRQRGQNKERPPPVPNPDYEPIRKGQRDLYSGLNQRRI
In short: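 Jurkat cells (2.5E5 per condition) incubated with bispecific molecule in PBS/2% FBS on ice for 20 min, then detected with PE-labelled anti-human Fc (1:500, 20 min on ice). Cells fixed in 2% paraformaldehyde and bound antibody measured by flow cytometry.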

human ROR1 on cells [5] = target: T3, human ROR1 on cells; assay: cell-based or functional assay
[6] = target: T2, soluble biotinylated human ROR1 …; assay: ELISA, captured construct, biotinylated ROR1 titrated; first of the two values given
Method: (§1) To measure the binding of bispecific constructs to soluble ROR1, a 96-well Costar-3366 plate was coated with 50 μL/well of 2 μg/mL goat anti-human kappa (Southern Biotech cat. #2060-01) in PBS overnight at 4° C. The plate was rinsed once with PBS-T, blocked with 100 μL/well 5% M-P for 1 h at 25° C., rinsed once with PBS-T, and 2 μg/mL of the bispecific binding molecule was added and incubated for 1 h at 25° C. The plate was washed three times with PBS-T. Biotinylated ROR1 was diluted serially, 3-fold in 5% M-P and was incubated for 1 h at 25° C. (50 μL/well). The plate was washed three times with PBS-T. To detect the binding of b-ROR1, 50 μL/well Neutravidin-HRP (Pierce cat. #31030) diluted 1:5000 in 1% BSA-PBS was added for 1 h at 25° C. […] The reaction was terminated by the addition of 2 N H₂SO₄ and the A450 was determined using a Spectramax plate reader.
(§2) The stronger binding observed with bivalent constructs versus monovalent constructs in cell assays and ELISAs in which the antigen is immobilized is consistent with an avidity effect. To determine if this was the case, binding to soluble monomeric ROR1 was assessed by immobilizing the bispecific binding molecules on a microtiter plate coated with goat anti-human kappa antibody and titrating biotinylated RORL. […]

human ROR1 on cells [7] = target: T3, human ROR1 on cells; assay: cell-based or functional assay; remark: listed apart in the source
[8] = target: T2, soluble biotinylated human ROR1 …; assay: ELISA, captured construct, biotinylated ROR1 titrated; second of the two values given
Method: as §1, §2

[9] = target: T1, recombinant human ROR1 extracellular …; assay: ELISA, Fab titrated on immobilized human ROR1
[10] = target: T1, recombinant human ROR1 extracellular …; assay: ELISA, immobilised ROR1 ECD, antibody titrated
Method: A 96-well Costar-3366 plate was coated with 50 μL/well of 2 μg/mL […] (Acro Biosystems cat. #R01-H522Y) in PBS overnight at 4° C. The plate was rinsed once with PBS containing 0.05% Tween 20 (PBS-T) and blocked with 100 μL/well of 5% non-fat milk in PBS (5% M-P) for 1 h at 25° C. Antibody samples were serially diluted 2-fold using 5% M-P and were incubated for 1 h at 25° C. (50 μL/well). The plate was washed three times with PBS-T and 50 μL/well anti-human kappa, HRP conjugate (Southern Biotech cat. #2060-05) diluted 10,000-fold in 5% M-P was added for 1 h at 25° C. The plate was washed three times with PBS-T, developed with 50 μL/well 1-Step Ultra TMB-ELISA (Thermo Scientific cat. #34028). The reaction was terminated by the addition of 2 N H₂SO₄ and the A450 was determined using a Spectramax plate reader.
Next, the binding of bispecific binding molecules to ROR was characterized by ELISA using recombinantly-expressed extracellular domain of RORL. ROR was immobilized on a microtiter plate, the bispecific binding molecules were titrated, and binding was quantitated with an anti-human kappa-HRP reagent. Consistent with the cell binding data, all constructs bound ROR1 in a concentration-dependent manner (FIG. 6). Moreover, monovalent ROR1 constructs 13-15 bound less tightly than all but two of the bivalent constructs.

[11] = target: T2, soluble biotinylated human ROR1 …; assay: ELISA, captured antibody, biotinylated ROR1 titrated
Method: as §1, §2

Row | Binder | Kd [1] [nM] | Kd [2] [nM] | EC50 (read off the curve) (human ROR1 on cells [3]) [ng/mL] | binding result [4] | EC50, LDH release, ROR1-transfected MEC (human ROR1 on cells [5]) | Max. LDH Release, ROR1-transfected MEC (human ROR1 on cells [5]) [%] | EC50, LDH release, Mino (human ROR1 on cells [5]) | Max. LDH Release, Mino (human ROR1 on cells [5]) [%] | also measured
1 | B1 | 0.2 | 0.193 | ~3 | binds | 11 ng/mL and 55 pM | 42 |  |  | 
2 | B2 | 0.158 |  |  | binds |  |  | 0.75 ng/mL and 3.8 pM | 75 | Kd [6]: 0.268 nM; EC50, LDH release, ROR1-transfected MEC, one PBMC donor (human ROR1 on cells [7]): < 0.1 ng/mL; Kd [8]: 0.229 nM; EC50, LDH release, A549 (human ROR1 on cells [5]): 9.95 ng/mL and 49.8 pM; EC50, LDH release, A4573 (human ROR1 on cells [5]): 9.71 ng/mL and 48.6 pM; EC50, LDH release, JeKo-1 (human ROR1 on cells [5]): 1.71 ng/mL and 8.5 pM; EC50, LDH release, MDA-MB-468 (human ROR1 on cells [5]): 5.55 ng/mL and 27.8 pM; EC50, LDH release, NCI-H1975 (human ROR1 on cells [5]): 2.3 ng/mL and 11.5 pM; EC50, LDH release, Saos-2 (human ROR1 on cells [5]): 14.6 ng/mL and 73.2 pM
3 | B3 |  |  |  |  |  |  |  |  | EC50 (read off the curve) [9]: ~6 nM
4 | B4 |  |  |  |  |  |  |  |  | Kd [10]: 0.037 nM; Kd [11]: 0.158 nM and 0.145 nM
5 | B5 | 0.05 | 0.118 | ~5 | binds | 1.3 ng/mL and 6.5 pM | 55 | 0.97 ng/mL and 4.9 pM | 50 | 
